# According to patent US20230242590A1:
# Read-outs that look alike come from different tables or passages of the source.
# What was measured:
# Assay in all cases: UV peptide exchange + HLA class I ELISA
# HLA-A*24:02 (human) = biological target: HLA-A*24:02 (human)
# HLA-B*07:02 (human) = biological target: HLA-B*07:02 (human)
# HLA-A*11:01 (human) = biological target: HLA-A*11:01 (human)
# HLA-A*01:01 (human) = conditions: remark: other sources report otherwise
# HLA-B*08:01 (human) = conditions: remark: other sources report otherwise
# HLA-A*03:01 (human) = biological target: HLA-A*03:01 (human)
# HLA-A*02:01 (human) = biological target: HLA-A*02:01 (human)
# [1] = remark: other sources report otherwise
binder,measurement,setting,value
GYPALMPLY (modifications not checked) [p650-658],Bindings% (of positive control),HLA-A*24:02 (human),42.7%
LPIHTAELL (modifications not checked) [p723-731],Bindings% (of positive control),HLA-B*07:02 (human); [1],32.3%
SFCGSPYSW (modifications not checked) [p167-175],Bindings% (of positive control),HLA-A*24:02 (human),84%
STTDLEAYFK (modifications not checked) [x104-113],Bindings% (of positive control),HLA-A*11:01 (human); [1],98.7%
WPKFAVPNL (modifications not checked) [p404-412],Bindings% (of positive control),HLA-B*07:02 (human); [1],70.5%
PLDKGIKPYY (modifications not checked) [p124-133],Bindings% (of positive control),HLA-A*01:01 (human),26.7%
VFADATPTGW (modifications not checked) [p697-706],Bindings% (of positive control),HLA-A*24:02 (human),40.4%
GPCALRFTS (modifications not checked) [x67-75],Bindings% (of positive control),HLA-B*07:02 (human),26.9%
VLHKRTLGL (modifications not checked) [x92-100],Bindings% (of positive control),HLA-B*08:01 (human),60.8%
TTDLEAYFK (modifications not checked) [x105-113],Bindings% (of positive control),HLA-A*01:01 (human),41.7%
LPVCAFSSA (modifications not checked) [x58-66],Bindings% (of positive control),HLA-B*07:02 (human); [1],52.8%
RVHFASPLH (modifications not checked) [p829-837],Bindings% (of positive control),HLA-A*11:01 (human),39.5%
same,Bindings% (of positive control),HLA-A*03:01 (human),68.8%
MSTTDLEAY (modifications not checked) [x103-111],Bindings% (of positive control),HLA-A*01:01 (human),30.2%
CGYPALMPLY (modifications not checked) [p649-658],Bindings% (of positive control),HLA-A*24:02 (human),38.1%
HLSLRGLPV (modifications not checked) [x52-60],Bindings% (of positive control),HLA-B*08:01 (human),79.8%
FAVPNLQSL (modifications not checked) [p407-415],Bindings% (of positive control),HLA-A*02:01 (human),33.3%
VLCLRPVGA (modifications not checked) [x15-23],Bindings% (of positive control),HLA-A*02:01 (human); [1],31.7%
